Laboratory results from the RNAGym collection of RNA variant scans (doi:10.1073/pnas.2313332121).

B1: TPR t1 (parent)
chain: GACCAAUCUGCCCUCAGAGCUCGAGAACAUCUUCGGAUGCAGAGGAGGCAGGCUUCGGUGGCGCGAUAGCGCCAACGUCCUCAACCUCCAAUGCAUCCCACCACAUGAUGAUGCCUGAAGAGCCUUGGUUUUUUG

Variants of: B1
Assay: polymerase ribozyme fitness, log enrichment relative to wild type (log ratio); higher = more active; in vitro selection for triplet polymerase activity
Summary of the method: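 Each subunit of a heterodimeric triplet polymerase ribozyme was represented by a PCR-built, transcribed mutant library that underwent triplicate single-round in vitro selection with frozen incubation at −7 °C. Extended constructs were recovered by gel excision, streptavidin-bead capture and RT-PCR, and Illumina sequencing of input and output libraries kept genotypes with ≥10 input reads and ≥1 read per output. Fitness is the logarithm of genotype enrichment relative to wild-type enrichment, from inverse-variance-weighted replicate averages, with a logarithm base of 2.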

First: C11G C115A
Second: C70A C114U U125A
The “polymerase ribozyme fitness (log ratio)” value of the first is higher: 0.0312 for the first, -5.48 for the second.

First: A6U C49U G60A C94G G113A
Second: A6G A37U C56G
The “polymerase ribozyme fitness (log ratio)” value of the first is lower: -3.92 for the first, -1.11 for the second.

Compared with G60C A66U G113A U126C, G60U U129A is higher in “polymerase ribozyme fitness (log ratio)” value: -4.03 for the first, -1.37 for the second.

Compared with G63C C104A, C8U C12U G57C A90U is higher in “polymerase ribozyme fitness (log ratio)” value: -1.86 for the first, -0.755 for the second.

Going from A105U U112C to C8A C12G C64U G110U, the “polymerase ribozyme fitness (log ratio)” value rises from -1.65 to -0.685.

Going from U33C G63U to G39A C53G G57C, the “polymerase ribozyme fitness (log ratio)” value rises from -3.43 to 0.135.

Going from C40A G44C C53A U55G G128A to C85G U112A U126A, the “polymerase ribozyme fitness (log ratio)” value rises from -3.45 to -1.28.

First: G61U U81G
Second: U67G U92G C99G A121G
The “polymerase ribozyme fitness (log ratio)” value of the first is higher: -2.74 for the first, -7.6 for the second.

C13U C97U and C13U G57A C79A are within 0.2 log units of each other in “polymerase ribozyme fitness (log ratio)” value: -1.03 for the first, -1.12 for the second.

Compared with G42C G63C C73A, C85A G127C is lower in “polymerase ribozyme fitness (log ratio)” value: -3.92 for the first, -4.59 for the second.

C53A C72G U92C U126A U132A and A6C G58C U92G C114A U130A are within 0.2 log units of each other in “polymerase ribozyme fitness (log ratio)” value: -4.63 for the first, -4.44 for the second.

G44A C72G C123A and G47A U55G C85U are within 0.2 log units of each other in “polymerase ribozyme fitness (log ratio)” value: -1.13 for the first, -1.22 for the second.

Compared with A29G G44U A50U G69U, G47C G61U C114U is lower in “polymerase ribozyme fitness (log ratio)” value: -2.04 for the first, -3.31 for the second.

Compared with U78A C102A U112A, C8U G47A U59A A74U C124A is higher in “polymerase ribozyme fitness (log ratio)” value: -1.54 for the first, 0.355 for the second.

Compared with G10U G42A G61C, A37C G45C G71C U130G U131C G135U is higher in “polymerase ribozyme fitness (log ratio)” value: -5.15 for the first, -3.26 for the second.

Compared with G36C C94U C97U, G51C G63U A84U U112G U132A is lower in “polymerase ribozyme fitness (log ratio)” value: -1.57 for the first, -5.83 for the second.

Compared with C11A G42A U54A C64U U129C, A5G G17A is higher in “polymerase ribozyme fitness (log ratio)” value: -4.74 for the first, -2.47 for the second.

Going from A46U U132A to C4U A68G, the “polymerase ribozyme fitness (log ratio)” value falls from -1.18 to -3.11.

First: C94G U106A G135U
Second: C31U G36U G61U C82A A111U
The “polymerase ribozyme fitness (log ratio)” value of the first is higher: -1.54 for the first, -5.16 for the second.

Compared with A29C G36U C73U, G44C G58C U59C U96A is higher in “polymerase ribozyme fitness (log ratio)” value: -3.91 for the first, -1.98 for the second.

First: U9G U116A
Second: U9G C62U A74U
The “polymerase ribozyme fitness (log ratio)” value of the first is lower: -0.815 for the first, -0.576 for the second.

Compared with C56U A83C, C11G G19A A43U is lower in “polymerase ribozyme fitness (log ratio)” value: 1.56 for the first, -1.81 for the second.

Going from A2U U38G C70U C98U G128U to C88G G113A, the “polymerase ribozyme fitness (log ratio)” value rises from -6.66 to -1.99.

First: C49A C73A
Second: U112G C115A U126G
The “polymerase ribozyme fitness (log ratio)” value of the first is higher: 0.508 for the first, -2.63 for the second.

First: G63U U131A
Second: C22G A37U C104U U132A
The “polymerase ribozyme fitness (log ratio)” value of the first is higher: -0.516 for the first, -3.57 for the second.

Going from A24G G57A G77U to C8A U112A, the “polymerase ribozyme fitness (log ratio)” value rises from -2.15 to 1.61.

Compared with C13G C15U C40U G117U G120A, U30C C56G G60U A84C is lower in “polymerase ribozyme fitness (log ratio)” value: -2.61 for the first, -3.79 for the second.

Going from C12U C115A to A29U C40G G52C G69C A121G U132C, the “polymerase ribozyme fitness (log ratio)” value falls from 0.202 to -2.06.

First: G17U U78C C114G
Second: G60U A91C G93U C104A G117U
The “polymerase ribozyme fitness (log ratio)” value of the first is higher: -5.37 for the first, -6 for the second.

Compared with A2U C40U C115A A121U, G51C U112C is lower in “polymerase ribozyme fitness (log ratio)” value: 0.0194 for the first, -1.34 for the second.

Going from A5U C73G C94G to C94A U125G, the “polymerase ribozyme fitness (log ratio)” value rises from -2.07 to -1.1.

Going from A111C U112A C123G to C4A C102U C123A, the “polymerase ribozyme fitness (log ratio)” value falls from -0.191 to -3.39.

Compared with C4G G60A, G61A U131C is higher in “polymerase ribozyme fitness (log ratio)” value: -1.91 for the first, -0.691 for the second.

Compared with C13A G60A C102U A118C G120U, G36U G48A C72U is higher in “polymerase ribozyme fitness (log ratio)” value: -2.89 for the first, -1.42 for the second.

Compared with G36U U78C C89G C101A, A2U G10U G42A C88U C89G U92G C115G is lower in “polymerase ribozyme fitness (log ratio)” value: -4.13 for the first, -6.18 for the second.

Compared with C12A G47C C49A U125A, A6C C72U G93U A100U is higher in “polymerase ribozyme fitness (log ratio)” value: -2.88 for the first, -2.39 for the second.

First: C49G A50U C72U
Second: A105C G128C
The “polymerase ribozyme fitness (log ratio)” value of the first is higher: -1.85 for the first, -3.71 for the second.

First: C49A G61A C89G U106G C123U
Second: U59G G71U G120C U130A
The “polymerase ribozyme fitness (log ratio)” value of the first is higher: -3.4 for the first, -4.75 for the second.

Going from G45U A46U to C11G C12A U38G G71A U106C G113A, the “polymerase ribozyme fitness (log ratio)” value falls from -2.3 to -3.24.

Going from G61U C82U to A43C C85G A90G C98A, the “polymerase ribozyme fitness (log ratio)” value falls from -0.605 to -7.04.

Going from A83G G113U to G71U C99U C115A, the “polymerase ribozyme fitness (log ratio)” value rises from -3.23 to -2.82.

First: G19A C62U U78G
Second: U9A C31G G61U A83C G107C
The “polymerase ribozyme fitness (log ratio)” value of the first is lower: -3.47 for the first, -1.25 for the second.
